Patent publication US20140302027A1, “METHODS OF TREATING PERIODONTAL INFLAMMATION AND PERIODONTAL BONE LOSS” (United States of America as Represented by the Secretary, …, priority 2011, published 2014)
“Also recorded” adds a separate entry of the source.

Columns and labels:
[1] = test system: inflammatory mediators in the gingiva of aged mice; test: qPCR of gingival mRNA in aged mice after local administration of soluble Del-1; type: in vivo, C57BL/6 mice; details: 12 h
Description: (§1) Ten 18-month-old C57BL/6 mice were microinjected in the gingiva with soluble recombinant mouse Del-1 (kindly provided by Valentis, Inc.)^4 and another ten mice with BSA control. Specifically, Del-1 or BSA (1 μg in 1-μl volume) were microinjected through a 28.5-gauge MicroFine needle (BD) into the palatal gingiva between the first and the second molar teeth, on both sides of the maxilla. Half of the Del-1 or BSAtreated mice were additionally orally inoculated with P. gingivalis ATCC 33277 (10^9 CFU) in 2% carboxymethylcellulose vehicle and the other half were orally given vehicle alone. All mice were sacrificed 12 h later. Maxillae were harvested and one side was stored in 4% paraformaldehyde for immunohistochemistry (see below), while the other side was used to dissect interdental gingiva which were placed into RNAlater solution (Ambion) for qPCR (see below). To determine whether IL-17 regulates Del-1 expression, a neutralizing anti-IL-17A mAb (clone M210, rat IgG2a; kindly provided by Amgen) was microinjected into the palatal gingiva (1 μg) as described above. Purified azide-free rat IgG2a (Biolegend) served as control. qPCR was used to determine […] in dissected gingiva.
Total RNA was extracted from excised gingival tissue or cultured cells using the PerfectPure RNA cell kit (5 Prime, Fisher) and quantified by spectrometry at 260 and 280 nm. The RNA was reverse-transcribed using the High-Capacity cDNA Archive kit (Applied Biosystems) and qPCR with cDNA was performed using the ABI 7500 Fast System, according to the manufacturer's protocol (Applied Biosystems). TaqMan probes, sense primers, and antisense primers for qPCR of genes investigated in this paper were purchased from Applied Biosystems.

[2] = test system: periodontal inflammation in old mice; test: Immunohistochemistry of interdental gingiva of old mice microinjected with Del-1 or BSA; type: in vivo, C57BL/6 mice
Description: FIG. 24. Del-1 inhibits IL-17 and periodontal inflammation in old mice. Eighteen-month-old C57BL/6 mice were microinjected in the gingiva with BSA (control) or Del-1, as indicated. In addition, the mice were orally administered P. gingivalis in 2% carboxymethylcellulose vehicle (a, b, c; lower rows) or vehicle control (a, b, c; upper rows) and were sacrificed 12 h later. Sagittal sections of interdental gingiva were stained for the neutrophil marker Ly6G (a), IL-17A (b), or TNF (c). Shown are typical fluorescent confocal images (left) and their overlays with corresponding DIC images (right). (d) The fluorescence intensities of these and additional representative images from independent mice were quantified using ImageJ analysis; data were expressed as % intensity of the Del-1-treated groups relative to the BSA-treated controls, the value of which was set to 100% (dashed line). ‘Induced inflammation’ refers to the groups inoculated with P. gingivalis. Data are means±SD (n=5 mice per group) from one of two independent experiments yielding similar results. **P<0.01 compared to BSA-treated controls.
as §1
Maxillae with intact surrounding tissue were fixed in 4% paraformaldehyde, decalcified in Immunocal solution (Decal) for 15 days, and embedded in OCT compound. Serial mesio-distal sections (7- to 8-μm thick) parallel to the long axis of the teeth (sagittal) were stained with monoclonal antibodies to mouse Ly6G (RB6-8C5, FITC-conjugate; LifeSpan BioSciences), mouse CD4 (GK1.5, FITC- or PE-conjugate; LifeSpan), mouse γδ T-cell receptor (GL3, FITC-conjugate; LifeSpan Biosciences) or with polyclonal antibodies to human/mouse Del-1 (ProteinTech), human/mouse IL-17A (Santa Cruz Biotech), human/mouse TNF (Abcam), human/mouse RANKL (Santa Cruz), and mouse CD31 (LifeSpan). Where necessary, staining involved the use of a secondary reagent (AlexaFluor594-conjugated goat anti-rabbit IgG; Molecular Probes). The specificity of staining was confirmed by using appropriate FITC-conjugated isotype controls or normal rabbit IgG followed by AlexaFluor594-goat anti-rabbit IgG. Images were captured using a laser-scanning confocal microscope (Olympus FV1000). Fluorescence intensity was quantified using the Image J software (NIH; http://rsb.info.nih.gov/ij).

WT neutrophils = test: Cytokine/chemokine release by isolated neutrophils stimulated with LPS plus C5a; type: cell-based, mouse; details: soluble Del-1 10 μg/ml, LPS (100 ng/ml) plus C5a (10 nM), 4 h
Description: FIG. 27. Effects of Del-1 deficiency or Del-1 on neutrophil function. (a) Migration of neutrophils isolated from wild-type (WT) or Edil3^−/− mice was tested in a transwell system. Chemokinesis (in the absence of a chemokine in the bottom well) or chemotaxis to CXCL2 (10 ng/ml) in the bottom well was assessed after 60 min. The migration of WT neutrophils in the absence of chemokine was set as the 100% control (dashed line) and the data were expressed relative to this value. (b) Neutrophils isolated from WT or Edil3^−/− mice were stimulated or not for 4 h with LPS (100 ng/ml) plus C5a (10 nM) and release of the indicated cytokines or chemokines in the culture supernatants was determined by ELISA. (c) WT neutrophils, in the presence or absence of soluble Del-1 (10 μg/ml), were stimulated as above and assayed for release of the indicated cytokines or chemokines. Data are means±SD (n=3 sets of neutrophils), from one of two independent sets of experiments yielding similar results.
Mouse neutrophils were obtained by harvesting the bone marrow (Ley (2007)). Briefly, bone marrow cells, obtained after flushing tibias and femurs with RPMI 1640 containing 10% FBS, were depleted of tissue debris and erythrocytes and were resuspended in 45% Percoll. […] Neutrophil purity was routinely >95%, as determined by FACS after staining for Ly6G, F4/80, and CD3.

LFA-1 = target: T1, LFA-1 (Mus musculus, UniProt P24063); details: at equimolar amounts; cited from earlier work
T1 construct: host or cells: leukocytes (endogenous LFA-1)

mouse neutrophils = details: cited from earlier work
[3] = 18-month-old mice, local gingival microinjection 1 μg, compared to BSA control

T1 sequence (P24063 24-1162): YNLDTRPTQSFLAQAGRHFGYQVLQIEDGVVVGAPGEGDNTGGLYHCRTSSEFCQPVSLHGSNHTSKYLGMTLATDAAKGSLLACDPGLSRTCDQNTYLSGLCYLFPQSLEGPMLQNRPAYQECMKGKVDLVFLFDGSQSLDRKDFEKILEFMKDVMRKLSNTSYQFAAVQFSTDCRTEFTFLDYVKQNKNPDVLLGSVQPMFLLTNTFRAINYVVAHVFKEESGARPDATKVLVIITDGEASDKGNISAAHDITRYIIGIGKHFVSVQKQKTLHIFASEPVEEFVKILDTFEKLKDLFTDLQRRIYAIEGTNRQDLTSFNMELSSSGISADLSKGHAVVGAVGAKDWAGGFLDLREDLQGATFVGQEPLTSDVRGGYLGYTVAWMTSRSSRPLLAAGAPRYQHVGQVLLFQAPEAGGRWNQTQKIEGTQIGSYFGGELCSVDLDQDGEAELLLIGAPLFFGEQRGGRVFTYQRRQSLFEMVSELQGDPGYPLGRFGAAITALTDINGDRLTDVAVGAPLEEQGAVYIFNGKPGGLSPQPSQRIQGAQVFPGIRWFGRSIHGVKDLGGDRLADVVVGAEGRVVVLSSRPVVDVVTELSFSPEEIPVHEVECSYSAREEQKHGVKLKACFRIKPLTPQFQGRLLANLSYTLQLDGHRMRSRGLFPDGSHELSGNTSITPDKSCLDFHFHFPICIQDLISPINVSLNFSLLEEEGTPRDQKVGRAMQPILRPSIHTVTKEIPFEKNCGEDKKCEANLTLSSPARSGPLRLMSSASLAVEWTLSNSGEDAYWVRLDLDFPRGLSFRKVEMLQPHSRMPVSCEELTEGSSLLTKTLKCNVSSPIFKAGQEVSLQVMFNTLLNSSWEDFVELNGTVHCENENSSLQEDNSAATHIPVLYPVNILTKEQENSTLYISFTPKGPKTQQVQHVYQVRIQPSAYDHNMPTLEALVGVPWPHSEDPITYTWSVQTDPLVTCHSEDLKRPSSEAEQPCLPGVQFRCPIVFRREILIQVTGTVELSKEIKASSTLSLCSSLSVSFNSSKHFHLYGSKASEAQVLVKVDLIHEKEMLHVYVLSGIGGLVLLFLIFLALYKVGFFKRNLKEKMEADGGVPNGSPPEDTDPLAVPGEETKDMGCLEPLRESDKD
T1 sequence (P11835 24-771 partner): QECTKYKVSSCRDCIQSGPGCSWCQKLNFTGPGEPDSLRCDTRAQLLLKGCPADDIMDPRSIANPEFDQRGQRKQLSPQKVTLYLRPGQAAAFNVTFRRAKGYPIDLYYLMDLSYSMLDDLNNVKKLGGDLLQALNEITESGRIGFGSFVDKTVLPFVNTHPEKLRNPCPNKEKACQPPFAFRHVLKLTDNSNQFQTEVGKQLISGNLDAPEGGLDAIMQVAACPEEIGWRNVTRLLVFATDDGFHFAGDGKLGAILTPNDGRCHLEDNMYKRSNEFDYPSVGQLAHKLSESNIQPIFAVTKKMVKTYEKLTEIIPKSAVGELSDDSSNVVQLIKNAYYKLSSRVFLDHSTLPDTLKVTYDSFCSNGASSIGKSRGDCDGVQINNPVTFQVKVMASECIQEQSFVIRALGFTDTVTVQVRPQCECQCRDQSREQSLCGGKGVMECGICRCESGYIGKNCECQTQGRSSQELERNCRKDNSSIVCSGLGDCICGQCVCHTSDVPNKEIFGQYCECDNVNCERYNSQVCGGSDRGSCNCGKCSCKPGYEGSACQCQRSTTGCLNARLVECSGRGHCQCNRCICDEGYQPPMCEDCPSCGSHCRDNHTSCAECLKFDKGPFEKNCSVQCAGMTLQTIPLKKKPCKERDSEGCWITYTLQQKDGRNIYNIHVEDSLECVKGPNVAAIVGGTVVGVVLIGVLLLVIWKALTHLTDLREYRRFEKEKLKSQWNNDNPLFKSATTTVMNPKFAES

B1: Del-1: soluble recombinant mouse Del-1 (provided by Valentis, Inc.); endothelial cell-expressed 52-kDa glycoprotein (protein)
chain: DICDPNPCENGGICLPGLADGSFSCECPDGFTDPNCSSVVEVASDEEEPTSAGPCTPNPCHNGGTCEISEAYRGDTFIGYVCKCPRGFNGIHCQHNINECEVEPCKNGGICTDLVANYSCECPGEFMGRNCQYKCSGPLGIEGGIISNQQITASSTHRALFGLQKWYPYYARLNKKGLINAWTAAENDRWPWIQINLQRKMRVTGVITQGAKRIGSPEYIKSYKIAYSNDGKTWAMYKVKGTNEDMVFRGNIDNNTPYANSFTPPIKAQYVRLYPQVCRRHCTLRMELLGCELSGCSEPLGMKSGHIQDYQITASSIFRTLNMDMFTWEPRKARLDKQGKVNAWTSGHNDQSQWLQVDLLVPTKVTGIITQGAKDFGHVQFVGSYKLAYSNDGEHWTVYQDEKQRKDKVFQGNFDNDTHRKNVIDPPIYARHIRILPWSWYGRITLRSELLGCTEEE
For B1, the “C3aR mRNA, Fold change vs. Del-1-untreated controls” value ([1]; CMC only) was 0.49 Fold change, the “C5aR mRNA, Fold change vs. Del-1-untreated controls” value ([1]; CMC only) was 0.50 Fold change and the “CCL2 mRNA, Fold change vs. Del-1-untreated controls” value ([1]; CMC only) was 0.48 Fold change. For the same molecule, the “CCL3 mRNA, Fold change vs. Del-1-untreated controls” value ([1]; CMC only) was 1.02 Fold change, the “CCL20 mRNA, Fold change vs. Del-1-untreated controls” value ([1]; CMC only) was 0.24 Fold change and the “CCR2 mRNA, Fold change vs. Del-1-untreated controls” value ([1]; CMC only) was 0.26 Fold change. For the same molecule, the “CCR6 mRNA, Fold change vs. Del-1-untreated controls” value ([1]; CMC only) was 0.25 Fold change, the “CD40 mRNA, Fold change vs. Del-1-untreated controls” value ([1]; CMC only) was 0.24 Fold change and the “CD80 mRNA, Fold change vs. Del-1-untreated controls” value ([1]; CMC only) was 0.25 Fold change. For the same molecule, the “CD86 mRNA, Fold change vs. Del-1-untreated controls” value ([1]; CMC only) was 0.50 Fold change, the “CXCL10 mRNA, Fold change vs. Del-1-untreated controls” value ([1]; CMC only) was 0.25 Fold change and the “CXCR4 mRNA, Fold change vs. Del-1-untreated controls” value ([1]; CMC only) was 0.50 Fold change. The “G-CSF mRNA, Fold change vs. Del-1-untreated controls” value ([1]; CMC only) was 0.12 Fold change, the “IL-1 mRNA, Fold change vs. Del-1-untreated controls” value ([1]; CMC only) was 0.50 Fold change and the “IL-6 mRNA, Fold change vs. Del-1-untreated controls” value ([1]; CMC only) was 0.25 Fold change. For the same molecule, the “IL-17 mRNA, Fold change vs. Del-1-untreated controls” value ([1]; CMC only) was 0.19 Fold change, the “RANKL mRNA, Fold change vs. Del-1-untreated controls” value ([1]; CMC only) was 0.49 Fold change and the “TLR1 mRNA, Fold change vs. Del-1-untreated controls” value ([1]; CMC only) was 0.24 Fold change. The “TLR2 mRNA, Fold change vs. Del-1-untreated controls” value ([1]; CMC only) was 0.26 Fold change, the “TLR4 mRNA, Fold change vs. Del-1-untreated controls” value ([1]; CMC only) was 0.25 Fold change and the “TLR5 mRNA, Fold change vs. Del-1-untreated controls” value ([1]; CMC only) was 0.51 Fold change. For the same molecule, the “TLR6 mRNA, Fold change vs. Del-1-untreated controls” value ([1]; CMC only) was 0.27 Fold change, the “TLR9 mRNA, Fold change vs. Del-1-untreated controls” value ([1]; CMC only) was 0.25 Fold change and the “TNF mRNA, Fold change vs. Del-1-untreated controls” value ([1]; CMC only) was 0.50 Fold change. The “TREM-1 mRNA, Fold change vs. Del-1-untreated controls” value ([1]; CMC only) was 0.49 Fold change, the “C3aR mRNA, Fold change vs. Del-1-untreated controls” value ([1]; Pg (P. gingivalis inoculated)) was 0.49 Fold change and the “C5aR mRNA, Fold change vs. Del-1-untreated controls” value ([1]; Pg (P. gingivalis inoculated)) was 0.25 Fold change. For the same molecule, the “CCL2 mRNA, Fold change vs. Del-1-untreated controls” value ([1]; Pg (P. gingivalis inoculated)) was 0.49 Fold change, the “CCL3 mRNA, Fold change vs. Del-1-untreated controls” value ([1]; Pg (P. gingivalis inoculated)) was 0.51 Fold change and the “CCL20 mRNA, Fold change vs. Del-1-untreated controls” value ([1]; Pg (P. gingivalis inoculated)) was 0.49 Fold change. The “CCR2 mRNA, Fold change vs. Del-1-untreated controls” value ([1]; Pg (P. gingivalis inoculated)) was 0.12 Fold change, the “CCR6 mRNA, Fold change vs. Del-1-untreated controls” value ([1]; Pg (P. gingivalis inoculated)) was 0.13 Fold change and the “CD40 mRNA, Fold change vs. Del-1-untreated controls” value ([1]; Pg (P. gingivalis inoculated)) was 0.25 Fold change. The “CD80 mRNA, Fold change vs. Del-1-untreated controls” value ([1]; Pg (P. gingivalis inoculated)) was 0.25 Fold change, the “CD86 mRNA, Fold change vs. Del-1-untreated controls” value ([1]; Pg (P. gingivalis inoculated)) was 0.49 Fold change and the “CXCL10 mRNA, Fold change vs. Del-1-untreated controls” value ([1]; Pg (P. gingivalis inoculated)) was 0.26 Fold change. The “CXCR4 mRNA, Fold change vs. Del-1-untreated controls” value ([1]; Pg (P. gingivalis inoculated)) was 0.24 Fold change, the “G-CSF mRNA, Fold change vs. Del-1-untreated controls” value ([1]; Pg (P. gingivalis inoculated)) was 0.25 Fold change and the “IL-1 mRNA, Fold change vs. Del-1-untreated controls” value ([1]; Pg (P. gingivalis inoculated)) was 0.25 Fold change. The “IL-6 mRNA, Fold change vs. Del-1-untreated controls” value ([1]; Pg (P. gingivalis inoculated)) was 0.24 Fold change, the “IL-17 mRNA, Fold change vs. Del-1-untreated controls” value ([1]; Pg (P. gingivalis inoculated)) was 0.25 Fold change and the “RANKL mRNA, Fold change vs. Del-1-untreated controls” value ([1]; Pg (P. gingivalis inoculated)) was 0.25 Fold change. For the same molecule, the “TLR1 mRNA, Fold change vs. Del-1-untreated controls” value ([1]; Pg (P. gingivalis inoculated)) was 0.24 Fold change, the “TLR2 mRNA, Fold change vs. Del-1-untreated controls” value ([1]; Pg (P. gingivalis inoculated)) was 0.25 Fold change and the “TLR4 mRNA, Fold change vs. Del-1-untreated controls” value ([1]; Pg (P. gingivalis inoculated)) was 0.12 Fold change. The “TLR5 mRNA, Fold change vs. Del-1-untreated controls” value ([1]; Pg (P. gingivalis inoculated)) was 0.51 Fold change, the “TLR6 mRNA, Fold change vs. Del-1-untreated controls” value ([1]; Pg (P. gingivalis inoculated)) was 0.26 Fold change and the “TLR9 mRNA, Fold change vs. Del-1-untreated controls” value ([1]; Pg (P. gingivalis inoculated)) was 0.51 Fold change. The “TNF mRNA, Fold change vs. Del-1-untreated controls” value ([1]; Pg (P. gingivalis inoculated)) was 0.51 Fold change, the “TREM-1 mRNA, Fold change vs. Del-1-untreated controls” value ([1]; Pg (P. gingivalis inoculated)) was 0.24 Fold change and the “expression of IL-17 in the periodontium” value [2, 3] was “diminished”. The “expression of TNF in the periodontium” value [2, 3] was “diminished”, the “neutrophil infiltration in the periodontium (Ly6G staining)” value [2, 3] was “reduced” and the “inflammation induced by oral inoculation with Porphyromonas gingivalis” value ([2]; old mice, P. gingivalis inoculated) was “suppressed”. For the same molecule, the “constitutive (naturally occurring) inflammation” value ([2]; old mice, vehicle only) was “suppressed”, the “cytokine and chemokine induction (TNF, CXCL1 release) by neutrophils” value (WT neutrophils) was “did not exert a direct effect; also recorded: No significant differences” and the “competition with ICAM-1 for binding to LFA-1 on leukocytes” value (LFA-1) was “outcompetes ICAM-1”. The “LFA-1-dependent adhesion of mouse neutrophils to mouse endothelial cells” value (mouse neutrophils) was “competitively inhibits”.
